B1: fluoresceinated MERS2 peptide F-SVSKQAVCLMERHLRRVPGARRNELKVALSKELKER [modified: fluorescein (F-) printed at the N-terminus; fluorescein (F-) printed at the N-terminus] [T. brucei] / T. brucei MERS1(37–395), his-tagged [Trypanosoma brucei … (parent complex)
chain 1: SVSKQAVCLMERHLRRVPGARRNELKVALSKELKER
chain 2: LVPRGSMDDALRGELASALDTEGHALPFDVHLQQPHSSGDGTAGDTSTIQLEKLSHPPARFDLLTNSFVYKWQTKAALARKVSGPMREWAAELKYRTGVHIELEPTYPERLSENAVKGSGSDDGDGTQWGAYETADDVDITVYLFGSERGIFNCHKLMEAAIQQDPVYVRLGIFRRLANSSEVEWLMLRRINRELRPPDIPPISLKLPGKWTLLYERYKEAAIRTLWEETGITVDASNVYPTGHLYQTVPQYYWRVPVRYFVAEVPSDIRVEGPQVVPLQYMRNWDARLLRQSPDPIDRAWAQLADPATGCAWMKASMIDQLQKPLRGDNYMAIRYTPPPYSNLQEVVGLGDGSITPSTGNGEDAS

Here are results for one variant from PMC6913127, “Structures of MERS1, the 5′ processing enzyme of mitochondrial mRNAs in Trypanosoma brucei” (RNA, 2020).

Variants of B1 are the subject of this assay. Nature of the assay: fluorescence polarization; value read at the highest MERS1 concentration point, about 13.3 µM (estimated from the x axis); parent: 53; read off a plot.
chain 1 L29P, chain 1 E32P: the response is roughly 21 mP.
